Results as given in paper PMC5709738 (The EMBO Journal, 2017).

What was measured:
[1] = tested on: S. cerevisiae clones; assay: dilution-series growth assay on solid YPD agar with benomyl; assay type: cell-based; conditions: 20 μg/ml benomyl
Text: For vegetative growth assays on solid agar, we serially diluted our mitotically cycling S. cerevisiae clone suspensions to an absorbance at 600 nm (A600) of 0.4, in 96‐well plates (Nunc; Thermo Fisher Scientific). From this suspension, we sequentially fourfold diluted suspensions with minimal synthetic complete medium row‐wise (Fig 8A and C; Appendix Fig S9A, B and E). We spotted S. cerevisiae suspensions with a sterilized 48‐head metal pinner (V & P Scientific, Inc.). We prepared our solid YPD agar that contained benomyl with a final concentration of 20 μg/ml benomyl (Sigma‐Aldrich). We did our growth experiments with S. cerevisiae clones that encode Mad1 fused to an auxin‐inducible degron (Appendix Fig S9E) on solid yeast‐extract peptone (YEP) agar with 2% (w/v) raffinose and 2% (w/v) galactose, and 1 mM of the synthetic auxin analogue 1‐napthylic acetic acid (NAA; Carl Roth), similarly as described (Nishimura et al, 2009). To prepare S. cerevisiae extracts for our Western blot that we show an image in Appendix Fig S9F, we grew cultures in YEP with 2% (w/v) raffinose and 2% (w/v) galactose to an A600 of 0.3. After the addition of NAA to a concentration of 1 mM, we collected cells from cultures after specific time points (Appendix Fig S9F) by centrifugation.

[2] = biological target: COMA-MIND (K. lactis COMA bound with MIND-C1) (Kluyveromyces lactis) (UniProt Q6CUE5); assay: native MS; nanoflow electrospray of intact assemblies in 200 mM ammonium acetate pH 6.7-7.3 or 7.4; higher micromolar concentrations (COMA ~3 or ~6 uM; COMA-Nkp1-Nkp2 ~3 uM)
[3] = biological target: COMA (K. lactis, full length: Ame1, Ctf19, Mcm21, Okp1) (Kluyveromyces lactis) (UniProt Q6CUE5); assay: as above
[4] = biological target: COMA (K. lactis, full length: Ame1, Ctf19, Mcm21, Okp1) (Kluyveromyces lactis) (UniProt Q6CUE5); assay: SEC-MALS; COMA injected at ~43 uM (COMA dimer) on Superdex 200 10/300; max. dimeric COMA concentration in the principal peak 2.4 uM
[5] = biological target: T1, Okp1 (K. lactis, full length) (Kluyveromyces lactis, UniProt Q6CJY0 1-383); assay: native MS; nanoflow spectra and tandem mode with collision-induced dissociation in the gas phase (argon); subassemblies stripped of subunits; conditions: both partners purified
T1 construct: Okp1 (CENP-Q orthologue) of Kluyveromyces lactis; also called Okp1^CENP-Q; outer kinetochore protein 1; source: E. coli BL21 Rosetta 2(DE3)pLysS, co-expressed as COMA, purified
T1 sequence (looked up): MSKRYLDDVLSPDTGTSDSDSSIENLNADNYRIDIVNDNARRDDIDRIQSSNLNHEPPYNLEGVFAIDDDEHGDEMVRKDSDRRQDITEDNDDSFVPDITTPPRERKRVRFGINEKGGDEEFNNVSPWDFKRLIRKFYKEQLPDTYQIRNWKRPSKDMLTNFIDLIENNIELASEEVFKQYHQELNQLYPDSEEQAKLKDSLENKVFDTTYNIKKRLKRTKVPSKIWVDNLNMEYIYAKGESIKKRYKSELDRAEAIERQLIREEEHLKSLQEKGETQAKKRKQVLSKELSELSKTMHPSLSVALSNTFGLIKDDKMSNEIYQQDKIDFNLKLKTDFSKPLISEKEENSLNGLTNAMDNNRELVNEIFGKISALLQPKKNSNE

[6] = biological target: T2, Ame1-Okp1 (K. lactis, full length) (Kluyveromyces lactis, UniProt Q6CUE5 1-292; Q6CJY0 1-383); assay: as above; conditions: both partners purified
T2 construct: Ame1 of Kluyveromyces lactis; Okp1 of Kluyveromyces lactis; stands as the Ame1-Okp1 part of COMA; also called Okp1-Ame1; source: E. coli BL21 Rosetta 2(DE3)pLysS, co-expressed with Ctf19 and Mcm21 versions
T2 sequence (looked up) 1: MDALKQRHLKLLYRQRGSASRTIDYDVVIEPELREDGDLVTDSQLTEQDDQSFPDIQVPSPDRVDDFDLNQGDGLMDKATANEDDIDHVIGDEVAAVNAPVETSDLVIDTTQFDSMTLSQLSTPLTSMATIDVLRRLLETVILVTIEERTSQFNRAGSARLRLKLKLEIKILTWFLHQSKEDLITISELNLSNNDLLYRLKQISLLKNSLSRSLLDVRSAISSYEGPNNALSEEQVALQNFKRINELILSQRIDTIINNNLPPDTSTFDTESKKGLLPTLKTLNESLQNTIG
T2 sequence (looked up) 2: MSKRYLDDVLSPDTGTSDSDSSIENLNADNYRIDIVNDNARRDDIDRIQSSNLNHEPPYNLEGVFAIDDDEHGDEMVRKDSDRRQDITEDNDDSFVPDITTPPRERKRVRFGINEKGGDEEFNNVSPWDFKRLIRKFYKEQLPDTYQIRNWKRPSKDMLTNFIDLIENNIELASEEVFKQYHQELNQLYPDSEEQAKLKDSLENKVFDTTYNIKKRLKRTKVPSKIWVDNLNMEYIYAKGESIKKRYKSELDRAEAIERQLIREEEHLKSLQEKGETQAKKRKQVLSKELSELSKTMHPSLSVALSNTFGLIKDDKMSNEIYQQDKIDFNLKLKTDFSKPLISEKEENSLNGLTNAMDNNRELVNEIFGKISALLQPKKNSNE

[7] = biological target: T3, COMA (K. lactis, full length: Ame1, Ctf19, Mcm21, Okp1) (Kluyveromyces lactis, UniProt Q6CUE5 1-292; Q6CRN7 1-270; Q6CVQ9 1-293; Q6CJY0 1-383); assay: as above; conditions: both partners purified
T3 construct: Ame1 of Kluyveromyces lactis; Ctf19 of Kluyveromyces lactis; Mcm21 of Kluyveromyces lactis; Okp1 of Kluyveromyces lactis; copies: + + +
T3 sequence (looked up) 1: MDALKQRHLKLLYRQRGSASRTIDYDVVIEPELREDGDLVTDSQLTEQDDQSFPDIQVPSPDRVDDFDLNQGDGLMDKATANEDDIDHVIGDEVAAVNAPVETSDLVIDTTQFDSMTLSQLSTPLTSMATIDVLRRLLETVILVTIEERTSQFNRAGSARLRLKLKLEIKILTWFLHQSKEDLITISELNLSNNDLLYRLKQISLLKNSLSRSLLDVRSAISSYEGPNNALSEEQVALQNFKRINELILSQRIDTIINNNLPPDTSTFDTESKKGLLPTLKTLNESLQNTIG
T3 sequence (looked up) 2: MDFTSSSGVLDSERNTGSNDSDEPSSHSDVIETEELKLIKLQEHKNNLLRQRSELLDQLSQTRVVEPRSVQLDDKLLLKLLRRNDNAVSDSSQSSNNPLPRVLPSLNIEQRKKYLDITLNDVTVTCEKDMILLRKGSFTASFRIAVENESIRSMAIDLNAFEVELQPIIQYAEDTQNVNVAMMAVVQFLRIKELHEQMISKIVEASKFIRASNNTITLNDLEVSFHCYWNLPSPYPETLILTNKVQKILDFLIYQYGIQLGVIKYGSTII
T3 sequence (looked up) 3: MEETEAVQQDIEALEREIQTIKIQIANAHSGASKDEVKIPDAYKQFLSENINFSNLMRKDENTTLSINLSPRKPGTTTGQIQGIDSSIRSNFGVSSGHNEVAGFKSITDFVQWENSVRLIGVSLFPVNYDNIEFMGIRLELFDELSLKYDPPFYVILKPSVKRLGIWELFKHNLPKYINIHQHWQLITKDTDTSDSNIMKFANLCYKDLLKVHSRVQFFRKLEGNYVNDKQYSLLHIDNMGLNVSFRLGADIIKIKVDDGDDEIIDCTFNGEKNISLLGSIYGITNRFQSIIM
T3 sequence (looked up) 4: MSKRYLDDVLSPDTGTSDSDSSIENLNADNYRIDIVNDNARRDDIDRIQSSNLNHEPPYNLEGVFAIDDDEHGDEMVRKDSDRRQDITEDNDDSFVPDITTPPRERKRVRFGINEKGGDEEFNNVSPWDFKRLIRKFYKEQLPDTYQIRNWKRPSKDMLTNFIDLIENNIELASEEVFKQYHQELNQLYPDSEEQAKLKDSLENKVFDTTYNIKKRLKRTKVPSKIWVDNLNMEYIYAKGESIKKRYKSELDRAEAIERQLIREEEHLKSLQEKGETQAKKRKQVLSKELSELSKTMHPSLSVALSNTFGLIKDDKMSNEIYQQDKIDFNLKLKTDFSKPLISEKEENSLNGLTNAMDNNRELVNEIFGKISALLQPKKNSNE

For CCCCNC(=O)n1c(NC(=O)OC)nc2ccccc21 [benomyl], which “benomyl sensitivity (growth)” value ([1]; Okp1_cmΔ and Okp1_cmΔnnΔ mutants, solid YPD agar, elevated temperature) is on record?
Its value is “sensitive to benomyl”.

And the “growth in the presence of benomyl” value ([1]; Okp1_cmΔ cnn1Δ mutant compared with Okp1_cmΔ or cnn1Δ, 37°C)?
Its value is “reduced growth”.

“COMA-MIND (K. lactis COMA bound with MIND-C1) (from UniProt Q6CUE5 1-292; Q6CRN7 1-270; Q6CVQ9 1-293; Q6CJY0 1-383) (complex)” was tested. Which stoichiometry N [2] did it give?
The stoichiometry N was 2.

Which stoichiometry N [3] does the source give for “COMA (K. lactis, full length: Ame1, Ctf19, Mcm21, Okp1) (from UniProt Q6CUE5 1-292; Q6CRN7 1-270; Q6CVQ9 1-293; Q6CJY0 1-383) (complex)” here?
Its stoichiometry N is 2.

What about the stoichiometry N [4] of the same molecule?
Its stoichiometry N is 2.

B1: Nkp1 (K. lactis) (natural protein, Kluyveromyces lactis, UniProt Q6CPR4 1-210, looked up)
chain: MDLESEIIQLVRQNIRPKFPSLNDEQQARLDNALKYDVNYDILKKELVEYIDDWKRNEYYDVLTNIGDLQRLDLGNMLNGDGVSFPKLHSDLANLPRFRLIDNENEMDQSLLHKYDSLRTRLIEKCRAIELIRSATNTDVNYQDINSMLSVVELRQWRDEIQMEWKELAQNLELILKTWPDLTEEKRSKLLQLIDSSSLKSILHIKDNIE
notes: Nkp1 of Kluyveromyces lactis; also called non-essential kinetochore protein 1; HisNkp1; source: E. coli BL21 Rosetta 2(DE3)pLysS, purified
Does B1 bind [5]?
Result: binds

Does B1 bind [6]?
Result: binds

Does B1 bind [7]?
Result: binds
